Results as given in paper PMC3784563.

Target: Argonaute 1 (Ago1) (human (endogenous in PC-3, LNCaP, HCT116)) (UniProt Q9UL18)
Assay: co-IP; nuclear extracts from PC-3 cells; IP with anti-Ago1 (Wako 2A7) or anti-Ago2 (Wako 4G8), immunoblot for RNAP II; 10 mM Tris-HCl pH 8.0, 150 mM NaCl, 1 mM EDTA, 1 mM DTT, 0.1% NP-40, overnight at 4°C, protein G dynabeads; also done after transfection with siControl, siDicer or siDrosha (50 nM, 72 hrs)

decrease of the ratio of bound RNAP II to nuclear Ago1 after siDicer: 70%
Substance: RNA polymerase II (from UniProt P24928 1-1970) (complex)
